Reference: paper doi:10.1101/2021.07.23.453429 (bioRxiv, 2021)

B1: cyclophilin D (enzyme)
chain: not shown

Tests used:
full-length p53 = full-length p53 (UniProt P04637 1-393); experiment: SPR
cyclophilin D = target: B1; experiment: SPR
cyclophilin D, sequence (P30405 43-207): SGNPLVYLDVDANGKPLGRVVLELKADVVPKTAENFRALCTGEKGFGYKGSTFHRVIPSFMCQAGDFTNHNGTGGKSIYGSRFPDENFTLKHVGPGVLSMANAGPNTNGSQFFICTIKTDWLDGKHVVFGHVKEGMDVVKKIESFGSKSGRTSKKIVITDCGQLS

Row | Kd (full-length p53) [µM] | Binder | Kd (cyclophilin D) [µM]
1 | ~1 | B1 | –
2 | – | p53 NTD 20-70 (domain or fragment) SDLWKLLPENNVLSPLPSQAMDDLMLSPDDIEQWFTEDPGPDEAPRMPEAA | 9.4
